These results are taken from patent US20240100159A1, “USE OF IL-7R-ALPHA-GAMMA AGONIST PEPTIDES IN CELL MANUFACTURING” (MEDIKINE, INC., priority 2022, published 2024).

Ends that are not written are not given here.

T1: hu-IL-7Rα subunit (human, UniProt P16871 21-239, limits assumed)
T1 construct: also called human interleukin-7 receptor subunit α; CD127
T1 sequence (looked up): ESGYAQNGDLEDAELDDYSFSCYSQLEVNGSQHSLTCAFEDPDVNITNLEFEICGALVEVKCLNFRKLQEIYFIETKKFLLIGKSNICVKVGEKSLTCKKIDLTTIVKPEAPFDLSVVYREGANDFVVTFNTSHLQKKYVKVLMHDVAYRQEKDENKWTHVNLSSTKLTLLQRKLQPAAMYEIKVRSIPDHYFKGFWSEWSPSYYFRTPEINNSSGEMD

T2: hu-IL-7Rγc subunit (human), P31785
T2 chain: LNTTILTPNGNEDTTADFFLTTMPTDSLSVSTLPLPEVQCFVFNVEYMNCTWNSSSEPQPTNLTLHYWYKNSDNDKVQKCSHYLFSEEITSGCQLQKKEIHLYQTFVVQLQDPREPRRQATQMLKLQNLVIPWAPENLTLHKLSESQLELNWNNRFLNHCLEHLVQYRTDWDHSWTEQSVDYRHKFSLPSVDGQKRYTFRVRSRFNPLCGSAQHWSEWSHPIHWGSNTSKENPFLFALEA

T3: hu-IL-7Rγc subunit (human, UniProt P31785 23-262, limits assumed)
T3 construct: also called human Rγc subunit; common γc receptor
T3 sequence (looked up): T2 chain

The first assay deals with T1, hu-IL-7Rα subunit. Put plainly: not stated; binding to a unique binding site on the IL-7Rα subunit.
As for QCIHWDIETLLSCV (also called IL-7Rα ligand) [SEQ ID NO 455], the IC50 – broadly, the concentration that gives 50% inhibition – was under 10 µM. Turning to QCVHWDLDTLFGCIREQLEL (also called IL-7Rα ligand) [SEQ ID NO 458], the IC50 is under 10 µM.

The target in a further assay is T2, hu-IL-7Rγc subunit (human), P31785.
Assay: not given
In the case of VVCQDWEGVELCWQ (modifications not checked) [SEQ ID NO 261], the IC50 is under 100 µM.

The target of a further assay is T3, hu-IL-7Rγc subunit.
Assay: not given
In turn, RSNQTVVECQDWEGVELCWQ (not fully specified (bridges); cysteine pairing not given here, also called Rγc ligand) [SEQ ID NO 282] had an IC50 of under 100 µM.

Molecule ILCQEFEGVELCWLEESLAE (not fully specified (bridges); cysteine pairing not given here, also called Rγc ligand) [SEQ ID NO 284] gave an IC50 of under 100 µM.

KPVVVCEEWQGVELCWLEIQ (not fully specified (bridges); cysteine pairing not given here, also called Rγc ligand) [SEQ ID NO 301] showed an IC50 of under 100 µM. On the same count and under the same terms, for EGSTTTIECEEWAGVELCWL (not fully specified (bridges); cysteine pairing not given here, also called Rγc ligand) [SEQ ID NO 273] the value was under 100 µM. The same measure, in the same setting: to RSDDEVVVCQEWEGVELCWQ (not fully specified (bridges); cysteine pairing not given here, also called Rγc ligand) [SEQ ID NO 275] belongs under 100 µM. The same measure, in the same setting: to IECEEWAGVELCWL (not fully specified (bridges); cysteine pairing not given here, also called Rγc ligand) [SEQ ID NO 276] belongs under 100 µM; to VTCQEYEGVELCWTVGCAYS (not fully specified (bridges); cysteine pairing not given here, also called Rγc ligand) [SEQ ID NO 307], under 100 µM; to RLLNSVVECLDWEGVELCWQ (not fully specified (bridges); cysteine pairing not given here, also called Rγc ligand) [SEQ ID NO 268], under 100 µM.

Turning to KKIVVCQDWGGVELCWTEDD (not fully specified (bridges); cysteine pairing not given here, also called Rγc ligand) [SEQ ID NO 317], the IC50 was under 100 µM. Still for that read-out and setting: to AHSRQEVVCEEWYGVELCWI (not fully specified (bridges); cysteine pairing not given here, also called Rγc ligand) [SEQ ID NO 258] belongs under 100 µM; to FAHHGVVECQEWYGVELCWQ (not fully specified (bridges); cysteine pairing not given here, also called Rγc ligand) [SEQ ID NO 279], under 100 µM; to VVCQEWEGVELCWC (not fully specified (bridges); cysteine pairing not given here, also called Rγc ligand) [SEQ ID NO 270], under 100 µM. Still for that read-out and setting: for VVCEVFQGVELCWCENEEFT (not fully specified (bridges); cysteine pairing not given here, also called Rγc ligand) [SEQ ID NO 302] the value was under 100 µM. Regarding WSKKAEVVCEEWGGVEFCWI (not fully specified (bridges); cysteine pairing not given here, also called Rγc ligand) [SEQ ID NO 281], the IC50 is under 100 µM. KLTVECQDWDGVELCWVGVE (not fully specified (bridges); cysteine pairing not given here, also called Rγc ligand) [SEQ ID NO 293] gave an IC50 of under 100 µM. Turning to YSRELYVQCEDWEGVELCWI (not fully specified (bridges); cysteine pairing not given here, also called Rγc ligand) [SEQ ID NO 260], the IC50 is under 100 µM. The same measure, in the same setting: for KTTVACQDWGGVELCWVERV (not fully specified (bridges); cysteine pairing not given here, also called Rγc ligand) [SEQ ID NO 298] the value was under 100 µM; for VVCQEWEGVELCWVEPPLLP (not fully specified (bridges); cysteine pairing not given here, also called Rγc ligand) [SEQ ID NO 295], under 100 µM; for VVCQEWEGVELCWYAGECMQ (not fully specified (bridges); cysteine pairing not given here, also called Rγc ligand) [SEQ ID NO 283], under 100 µM. On the same count and under the same terms, to DVECVDWGGVELCWH (not fully specified (bridges); cysteine pairing not given here, also called Rγc ligand) [SEQ ID NO 255] belongs under 100 µM.

The target of the next assay is T2, hu-IL-7Rγc subunit (human), P31785. Description: phage ELISA competition assay. Background: In an ELISA, binding on a coated surface is turned into a signal by an enzyme label.
Molecule VVCQDWEGVELCWQGG (modifications not checked) [SEQ ID NO 325] gave an IC50 of under 100 µM. Still for that read-out and setting: to GGVVCQDWEGVELCWQ (modifications not checked) [SEQ ID NO 326] belongs under 100 µM; to VVCQDWEGVELCWQ (modifications not checked) [SEQ ID NO 261], under 100 µM.

The next assay concerns the target T3, hu-IL-7Rγc subunit. Put plainly: not stated; binding to the specific binding site on the IL-7Rγc subunit.
The molecule MCWLEWGEWVGSCL (also called Rγc ligand) [SEQ ID NO 463] yielded an IC50 of under 10 µM.

Turning to RTCTEWENVVLCWV (also called Rγc ligand) [SEQ ID NO 462], the IC50 is under 10 µM. Still for that read-out and setting: to CPSMLQGPERTWVC (also called Rγc ligand) [SEQ ID NO 464] belongs under 10 µM.

The target of another assay is T1, hu-IL-7Rα subunit. Description: phage ELISA competition assay.
Molecule IPWCLLDPGGLQCVWL (also called IL-7Rα ligand) [SEQ ID NO 104] yielded an IC50 of under 10 µM.

Consider RHFDDIIPWCTLDPGSLQCAYL (also called IL-7Rα ligand) [SEQ ID NO 110], for which the IC50 is under 10 µM. Same read-out and setting: to HLGVPWCTLDPGSIQCAWLAKH (also called IL-7Rα ligand) [SEQ ID NO 102] belongs under 10 µM; to IRSCLWQPGALHCTWWAEEEPV (also called IL-7Rα ligand) [SEQ ID NO 103], under 10 µM; to HCKHWDLESLLLCV (also called IL-7Rα ligand) [SEQ ID NO 101], under 10 µM. The same measure, in the same setting: for NPFRSVVPWCALDPGSLQCAWL (also called IL-7Rα ligand) [SEQ ID NO 106] the value was under 10 µM; for QCVHWDLDTLFGCIREQLEL (also called IL-7Rα ligand) [SEQ ID NO 109], under 10 µM; for GWGIPWCTLDPGSLQCAWLGKH (also called IL-7Rα ligand) [SEQ ID NO 116], under 10 µM.

YRSGHGIPWCMLDPGGLQCSWL (also called IL-7Rα ligand) [SEQ ID NO 117] gave an IC50 of under 10 µM. Still for that read-out and setting: to KAGSWFIPWCTLDPGSLQCAFL (also called IL-7Rα ligand) [SEQ ID NO 105] belongs under 10 µM; to QCIHWDLESLLNCLRELKEP (also called IL-7Rα ligand) [SEQ ID NO 108], under 10 µM; to SAKVLKQCLHWDLESLLSCL (also called IL-7Rα ligand) [SEQ ID NO 111], under 10 µM. Same read-out and setting: for VHRIPWCTLDPGGLQCAWLRQM (also called IL-7Rα ligand) [SEQ ID NO 114] the value was under 10 µM; for QCIHWDIETLLSCV (also called IL-7Rα ligand) [SEQ ID NO 107], under 10 µM.

VPWCMLDPGSMQCAWL (also called IL-7Rα ligand) [SEQ ID NO 113] showed an IC50 of under 10 µM. On the same count and under the same terms, for HCLHWNIETLMSCVYGNFEE (also called IL-7Rα ligand) [SEQ ID NO 100] the value was under 10 µM. For WVTIPWCILDPGSLQCEWQTKV (also called IL-7Rα ligand) [SEQ ID NO 115], the IC50 was under 10 µM.
